Results taken from PMC12416549 (2024).
Changes are numbered by the printed parent chain. Numbers in names are those of the source.

T1: TNFR1 (Homo sapiens, UniProt P19438)
T1 chain: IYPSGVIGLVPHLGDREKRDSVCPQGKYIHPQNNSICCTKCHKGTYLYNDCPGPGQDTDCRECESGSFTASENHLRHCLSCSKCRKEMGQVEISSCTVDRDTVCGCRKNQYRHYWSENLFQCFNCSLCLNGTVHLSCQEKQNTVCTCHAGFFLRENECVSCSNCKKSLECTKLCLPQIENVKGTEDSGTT

B1: A69G (designed binder)
chain: MTLQELLREEALRRAEAEAFRYALELLAEKFPEQKEYLLDLAEEIESQIRSLSGVDVEDVRKFLDKEWGWVKELLAEHPAELAEVEAARAARLAELRAEVEAKVAA
B2: A83T (designed binder)
chain: B1 chain with G69A, A83T
B3: A80G (designed binder)
chain: B1 chain with G69A, A80G
B4: E84H (designed binder)
chain: B1 chain with G69A, E84H
B5: L64C (designed binder)
chain: B1 chain with L64C, G69A
B6: E84Q (designed binder)
chain: B1 chain with G69A, E84Q
B7: W68G (designed binder)
chain: B1 chain with W68G, G69A
B8: A91W (designed binder)
chain: B1 chain with G69A, A91W
B9: A15C (designed binder)
chain: B1 chain with A15C, G69A
B10: E18I (designed binder)
chain: B1 chain with E18I, G69A
B11: D65K (designed binder)
chain: B1 chain with D65K, G69A
B12: R14E (designed binder)
chain: B1 chain with R14E, G69A
B13: W70N (designed binder)
chain: B1 chain with G69A, W70N
B14: L24Y (designed binder)
chain: B1 chain with L24Y, G69A
B15: L93S (designed binder)
chain: B1 chain with G69A, L93S
B16: R89T (designed binder)
chain: B1 chain with G69A, R89T
B17: A94N (designed binder)
chain: B1 chain with G69A, A94N
B18: E58P (designed binder)
chain: B1 chain with E58P, G69A
B19: Y22Q (designed binder)
chain: B1 chain with Y22Q, G69A
B20: D65N (designed binder)
chain: B1 chain with D65N, G69A
B21: E73L (designed binder)
chain: B1 chain with G69A, E73L
B22: E36S (designed binder)
chain: B1 chain with E36S, G69A
B23: V104E (designed binder)
chain: B1 chain with G69A, V104E
B24: R14W (designed binder)
chain: B1 chain with R14W, G69A
B25: R92L (designed binder)
chain: B1 chain with G69A, R92L
B26: L3Y (designed binder)
chain: B1 chain with L3Y, G69A
B27: D40L (designed binder)
chain: B1 chain with D40L, G69A
B28: F63S (designed binder)
chain: B1 chain with F63S, G69A
B29: A83D (designed binder)
chain: B1 chain with G69A, A83D
B30: R14A (designed binder)
chain: B1 chain with R14A, G69A
B31: V104C (designed binder)
chain: B1 chain with G69A, V104C
B32: S53V (designed binder)
chain: B1 chain with S53V, G69A
B33: E77F (designed binder)
chain: B1 chain with G69A, E77F
B34: V60W (designed binder)
chain: B1 chain with V60W, G69A
B35: P32F (designed binder)
chain: B1 chain with P32F, G69A
B36: Q4S (designed binder)
chain: B1 chain with Q4S, G69A
B37: L64S (designed binder)
chain: B1 chain with L64S, G69A
B38: E95H (designed binder)
chain: B1 chain with G69A, E95H
B39: L82M (designed binder)
chain: B1 chain with G69A, L82M
B40: S51Y (designed binder)
chain: B1 chain with S51Y, G69A
B41: G54F (designed binder)
chain: B1 chain with G54F, G69A
B42: W68R (designed binder)
chain: B1 chain with W68R, G69A
B43: E81A (designed binder)
chain: B1 chain with G69A, E81A
B44: E44C (designed binder)
chain: B1 chain with E44C, G69A
B45: L74V (designed binder)
chain: B1 chain with G69A, L74V
B46: E9A (designed binder)
chain: B1 chain with E9A, G69A
B47: K72Q (designed binder)
chain: B1 chain with G69A, K72Q
B48: R14D (designed binder)
chain: B1 chain with R14D, G69A
B49: A28F (designed binder)
chain: B1 chain with A28F, G69A
B50: A76G (designed binder)
chain: B1 chain with G69A, A76G
B51: W70Q (designed binder)
chain: B1 chain with G69A, W70Q
B52: A94F (designed binder)
chain: B1 chain with G69A, A94F
B53: A98G (designed binder)
chain: B1 chain with G69A, A98G
B54: A87D (designed binder)
chain: B1 chain with G69A, A87D
B55: E77T (designed binder)
chain: B1 chain with G69A, E77T

Target: T1, TNFR1
Assay: yeast display SC50

| Binder | apparent Kd (screen) [pM] |
| --- | --- |
| B1 | 653 |
| B2 | 593 |
| B3 | 790 |
| B4 | 869 |
| B5 | 2480 |
| B6 | 869 |
| B7 | 718 |
| B8 | 718 |
| B9 | 539 |
| B10 | 539 |
| B11 | 539 |
| B12 | 653 |
| B13 | 18300 |
| B14 | 539 |
| B15 | 1050 |
| B16 | 446 |
| B17 | 653 |
| B18 | 718 |
| B19 | 490 |
| B20 | 490 |
| B21 | 653 |
| B22 | 405 |
| B23 | 653 |
| B24 | 539 |
| B25 | 446 |
| B26 | 593 |
| B27 | 1400 |
| B28 | 956 |

| Binder | apparent Kd (screen) [pM] |
| --- | --- |
| B29 | 490 |
| B30 | 490 |
| B31 | 490 |
| B32 | 2480 |
| B33 | 446 |
| B34 | 790 |
| B35 | 653 |
| B36 | 1160 |
| B37 | 24400 |
| B38 | 653 |
| B39 | 490 |
| B40 | 252 |
| B41 | 12500 |
| B42 | 2480 |
| B43 | 718 |
| B44 | 20200 |
| B45 | 2480 |
| B46 | 1400 |
| B47 | 539 |
| B48 | 335 |
| B49 | 12500 |
| B50 | 490 |
| B51 | 15200 |
| B52 | 593 |
| B53 | 718 |
| B54 | 490 |
| B55 | 490 |
